Key:
Test in all cases: co-IP
[1] = molecular target: pro-ALP (yeast vacuolar alkaline phosphatase, pro-form) (S. cerevisiae) (UniProt P11491)
[2] = molecular target: Δ79-82ALP (dimerization mutant of pro-ALP) (S. cerevisiae) (UniProt P11491)
co-IP = molecular target: the molecule itself

How did the percent of total Erv26p recovered in the IP [1] turn out when Erv26p (receptor) was run?
The percent of total Erv26p recovered in the IP was 2.5%.

What about the percent of total Erv26p recovered in the IP [2] of the same molecule?
Its percent of total Erv26p recovered in the IP is 1%.

B1: Δ79-82ALP (dimerization mutant of pro-ALP) (natural protein, S. cerevisiae, UniProt P11491 1-566, looked up)
chain: MMTHTLPSEQTRLVPGSDSSSRPKKRRISKRSKIIVSTVVCIGLLLVLVQLAFPSSFALRSASHKKKNVIFFVTDGMGSMARSFNQHVNDLPIDDILTLDEHFIGSSRTRSSDSLVTDSAAGATAFACALKSYNGAIGVDPHHRPCGTVLEAAKLAGYLTGLVVTTRITDATPASFSSHVDYRWQEDLIATHQLGEYPLGRVVDLLMGGGRSHFYPQGEKASPYGHHGARKDGRDLIDEAQSNGWQYVGDRKNFDSLLKSHGENVTLPFLGLFADNDIPFEIDRDEKEYPSLKEQVKVALGALEKASNEDKDSNGFFLMVEGSRIDHAGHQNDPASQVREVLAFDEAFQYVLEFAENSDTETVLVSTSDHETGGLVTSRQVTASYPQYVWYPQVLANATHSGEFLKRKLVDFVHEHKGASSKIENFIKHEILEKDLGIYDYTDSDLETLIHLDDNANAIQDKLNDMVSFRAQIGWTTHGHSAVDVNIYAYANKKATWSYVLNNLQGNHENTEVGQFLENFLELNLNEVTDLIRDTKHTSDFDATEIASEVQHYDEYYHELTN
With B1 as the molecule, how does the “ratio of untagged to HA-tagged pro-ALP immunoprecipitated” value (co-IP) read?
Its value is 0.05.

B2: pro-ALP (yeast vacuolar alkaline phosphatase, pro-form) (natural protein, S. cerevisiae, UniProt P11491 1-566, looked up)
chain: MMTHTLPSEQTRLVPGSDSSSRPKKRRISKRSKIIVSTVVCIGLLLVLVQLAFPSSFALRSASHKKKNVIFFVTDGMGPASLSMARSFNQHVNDLPIDDILTLDEHFIGSSRTRSSDSLVTDSAAGATAFACALKSYNGAIGVDPHHRPCGTVLEAAKLAGYLTGLVVTTRITDATPASFSSHVDYRWQEDLIATHQLGEYPLGRVVDLLMGGGRSHFYPQGEKASPYGHHGARKDGRDLIDEAQSNGWQYVGDRKNFDSLLKSHGENVTLPFLGLFADNDIPFEIDRDEKEYPSLKEQVKVALGALEKASNEDKDSNGFFLMVEGSRIDHAGHQNDPASQVREVLAFDEAFQYVLEFAENSDTETVLVSTSDHETGGLVTSRQVTASYPQYVWYPQVLANATHSGEFLKRKLVDFVHEHKGASSKIENFIKHEILEKDLGIYDYTDSDLETLIHLDDNANAIQDKLNDMVSFRAQIGWTTHGHSAVDVNIYAYANKKATWSYVLNNLQGNHENTEVGQFLENFLELNLNEVTDLIRDTKHTSDFDATEIASEVQHYDEYYHELTN
For B2, which “ratio of untagged to HA-tagged pro-ALP immunoprecipitated” value (co-IP) is on record?
Its value is 0.38.
